From patent US20240118272A1

Key:
[1] = molecular target: CD9(FL)-ALP conjugate (human; bovine); assay: HI-1000 capture immunoassay; calibrator C2, 3.7 ng/mL; run 2
[2] = molecular target: CD9(FL)-ALP conjugate (human; bovine); assay: HI-1000 capture immunoassay; calibrator C3, 7.4 ng/mL; run 1
[3] = molecular target: CD9(FL)-ALP conjugate (human; bovine); assay: HI-1000 capture immunoassay; calibrator C3, 10.96 mU/L; run 2
[4] = molecular target: CD9(FL)-ALP conjugate (human; bovine); assay: HI-1000 capture immunoassay; calibrator C4, 21.93 mU/L; run 1
[5] = molecular target: CD9(FL)-ALP conjugate (human; bovine); assay: HI-1000 capture immunoassay; calibrator C4, 21.93 mU/L; run 2
[6] = molecular target: CD9(FL)-ALP conjugate (human; bovine); assay: HI-1000 capture immunoassay; calibrator C5, 43.86 mU/L; run 1
[7] = molecular target: CD9(FL)-ALP conjugate (human; bovine); assay: HI-1000 capture immunoassay; calibrator C5, 43.86 mU/L; run 3
[8] = molecular target: CD9(FL)-ALP conjugate (human; bovine); assay: HI-1000 capture immunoassay; calibrator C4, 15 ng/mL; mean of 3
[9] = molecular target: CD9(FL)-ALP conjugate (human; bovine); assay: HI-1000 capture immunoassay; calibrator C2, 5.48 mU/L; mean of 3
[10] = molecular target: CD9(ECD)-ALP conjugate (human; bovine); assay: HI-1000 capture immunoassay; primary calibrator C1, 1.52 ng/mL; run 2
[11] = molecular target: CD9(ECD)-ALP conjugate (human; bovine); assay: HI-1000 capture immunoassay; primary calibrator C2, 4.89 ng/mL; run 1
[12] = molecular target: CD9(ECD)-ALP conjugate (human; bovine); assay: HI-1000 capture immunoassay; primary calibrator C4, 50.05 ng/mL; run 2
[13] = molecular target: CD9(ECD)-ALP conjugate (human; bovine); assay: HI-1000 capture immunoassay; primary calibrator C4, 50.05 ng/mL; run 3
[14] = molecular target: CD9(ECD)-ALP conjugate (human; bovine); assay: HI-1000 capture immunoassay; primary calibrator C5, 159.87 ng/mL; run 3
[15] = molecular target: CD9(ECD)-ALP conjugate (human; bovine); assay: HI-1000 capture immunoassay; secondary calibrator C4, 129.62 U/L; run 1
[16] = molecular target: CD9(ECD)-ALP conjugate (human; bovine); assay: HI-1000 capture immunoassay; secondary calibrator C5, 387.01 U/L; run 1
[17] = molecular target: CD9(ECD)-ALP conjugate (human; bovine); assay: HI-1000 capture immunoassay; secondary calibrator C3; mean of 3 aliquots
[18] = molecular target: CD9(ECD)-ALP conjugate (human; bovine); assay: HI-1000 capture immunoassay; thawed aliquot 1 of secondary calibrator C4
[19] = molecular target: CD9(ECD)-ALP conjugate (human; bovine); assay: HI-1000 capture immunoassay; thawed aliquot 2 of secondary calibrator C1
[20] = molecular target: CD9(ECD)-ALP conjugate (human; bovine); assay: HI-1000 capture immunoassay; secondary calibrator C1, 1.02 U/L; mean of 3

Sequence of CD9(ECD)-ALP conjugate (human; bovine) (chain, as listed by the source, chain 1 of 2): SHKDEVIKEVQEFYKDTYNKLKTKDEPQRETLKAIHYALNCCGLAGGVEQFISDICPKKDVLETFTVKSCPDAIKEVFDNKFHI
Sequence of CD9(ECD)-ALP conjugate (human; bovine) (P19111 20-506, chain 2 of 2): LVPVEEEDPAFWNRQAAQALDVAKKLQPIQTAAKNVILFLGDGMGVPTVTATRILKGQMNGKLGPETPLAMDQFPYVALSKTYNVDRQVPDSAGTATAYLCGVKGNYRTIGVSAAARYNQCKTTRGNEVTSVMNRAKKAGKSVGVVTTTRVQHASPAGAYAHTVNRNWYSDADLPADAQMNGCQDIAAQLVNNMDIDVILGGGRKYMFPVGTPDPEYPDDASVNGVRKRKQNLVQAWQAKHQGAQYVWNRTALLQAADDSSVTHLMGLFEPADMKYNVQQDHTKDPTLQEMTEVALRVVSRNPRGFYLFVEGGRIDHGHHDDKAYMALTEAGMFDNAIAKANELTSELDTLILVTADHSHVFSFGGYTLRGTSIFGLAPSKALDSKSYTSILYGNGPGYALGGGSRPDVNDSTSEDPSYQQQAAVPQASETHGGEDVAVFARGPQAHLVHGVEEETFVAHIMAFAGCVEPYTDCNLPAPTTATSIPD
Sequence of CD9(FL)-ALP conjugate (human; bovine) (chain, as listed by the source, chain 1 of 2): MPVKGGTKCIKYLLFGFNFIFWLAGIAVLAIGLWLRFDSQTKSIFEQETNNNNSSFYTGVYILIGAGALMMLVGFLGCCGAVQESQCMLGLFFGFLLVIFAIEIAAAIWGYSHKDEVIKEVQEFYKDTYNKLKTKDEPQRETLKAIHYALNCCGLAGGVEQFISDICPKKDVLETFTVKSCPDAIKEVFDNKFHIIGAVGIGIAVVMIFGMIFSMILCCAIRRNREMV
Sequence of CD9(FL)-ALP conjugate (human; bovine) (P19111 20-506, chain 2 of 2): as the sequence (P19111 20-506, chain 2 of 2) above

Question: With anti-CD9 antibody (Clone: H19a) as the substance, how does the Count value [1] read?
Answer: 8680 count

Question: And the Count value [2]?
Answer: 7040 count

Question: And the Count value [3]?
Answer: 7090 count

Question: What about the Count value [4] of the same substance?
Answer: 13400 count

Question: What about the Count value [5] of the same substance?
Answer: 13200 count

Question: What about the Count value [6] of the same substance?
Answer: 25800 count

Question: And the Count value [7]?
Answer: 27800 count

Question: And the Count value (av) [8]?
Answer: 13500 count

Question: And the Count value (av) [9]?
Answer: 3640 count

Question: What about the Count value [10] of the same substance?
Answer: 1100 count

Question: What about the Count value [11] of the same substance?
Answer: 2610 count

Question: What about the Count value [12] of the same substance?
Answer: 21800 count

Question: What about the Count value [13] of the same substance?
Answer: 22600 count

Question: And the Count value [14]?
Answer: 71600 count

Question: What about the Count value [15] of the same substance?
Answer: 71000 count

Question: And the Count value [16]?
Answer: 220000 count

Question: What about the Count value (av) [17] of the same substance?
Answer: 3900 count

Question: And the Count value [18]?
Answer: 11400 count

Question: What about the Count value [19] of the same substance?
Answer: 810 count

Question: What about the Count value (av) [20] of the same substance?
Answer: 941 count
